Measured values published in PMC9638019, “The archetypal gene transfer agent RcGTA is regulated via direct interaction with the enigmatic RNA polymerase omega subunit”.
One block for each molecule: values may come before it.

Key:
[1] = target: MBP-GafA-C^221–382 (R. capsulatus); assay: SEC; analytical gel filtration, Superdex 200 increase 10/200 GL, MBP binding buffer (200 mM NaCl, 20 mM Tris, 1 mM EDTA; pH 7.4); molecular weight estimated from a standard curve
[2] = target: Maltose Binding Protein-GafA fusion protein (R. capsulatus); assay: as above
[3] = target: MBP-GafA-Cx^87–382 (R. capsulatus); assay: as above
GafA-Nc1-86 [4] = target: T1, GafA-Nc1-86 (UniProt D5AUH1 1-86); assay: EMSA; non-specific: shift lost with 500-fold non-specific competitor; 25 mM HEPES pH 8.0, 50 mM K-glutamate, 50 mM MgSO4, 1 mM DTT, 0.1 mM EDTA, 0.05% Triton X-100, 4% glycerol, 1 ug poly dI:dC per 10 ul, 80 nM Cy5-dsDNA, 30 min room temperature; 7% acrylamide, 1x TBE; details: protein: recombinant; tags: none (MBP removed with 3C protease); label: 5'-Cy5 on one strand; blunt
T1 sequence: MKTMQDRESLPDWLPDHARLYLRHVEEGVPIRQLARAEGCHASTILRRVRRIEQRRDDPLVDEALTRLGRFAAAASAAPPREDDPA

GafA-Nc1-86 [5] = target: T1, GafA-Nc1-86; assay: EMSA; non-specific; 25 mM HEPES pH 8.0, 50 mM K-glutamate, 50 mM MgSO4, 1 mM DTT, 0.1 mM EDTA, 0.05% Triton X-100, 4% glycerol, 1 ug poly dI:dC per 10 ul, 80 nM Cy5-dsDNA, 30 min room temperature; 7% acrylamide, 1x TBE; details: protein: recombinant; tags: none (MBP removed with 3C protease); label: 5'-Cy5 on one strand; blunt
MBP-GafA-C221-382 = target: T2, MBP-GafA-C221-382 (UniProt D5AUH1 221-382); assay: EMSA; poly dI:dC; 25 mM HEPES pH 8.0, 50 mM K-glutamate, 50 mM MgSO4, 1 mM DTT, 0.1 mM EDTA, 0.05% Triton X-100, 4% glycerol, 1 ug poly dI:dC per 10 ul, 80 nM Cy5-dsDNA, 30 min room temperature; 7% acrylamide, 1x TBE; details: protein: recombinant; tags: N-terminal MBP; chain copies: 2; label: 5'-Cy5 on one strand; blunt
T2 sequence: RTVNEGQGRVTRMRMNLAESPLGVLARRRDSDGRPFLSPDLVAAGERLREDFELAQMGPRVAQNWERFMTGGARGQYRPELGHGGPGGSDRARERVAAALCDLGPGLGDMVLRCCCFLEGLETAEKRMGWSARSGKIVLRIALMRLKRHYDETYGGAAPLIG

GafA-Nc1-86 [6] = target: T1, GafA-Nc1-86; assay: EMSA; specific: shift remains with 500-fold non-specific competitor; 25 mM HEPES pH 8.0, 50 mM K-glutamate, 50 mM MgSO4, 1 mM DTT, 0.1 mM EDTA, 0.05% Triton X-100, 4% glycerol, 1 ug poly dI:dC per 10 ul, 80 nM Cy5-dsDNA, 30 min room temperature; 7% acrylamide, 1x TBE; details: protein: recombinant; tags: none (MBP removed with 3C protease); label: 5'-Cy5 on one strand; blunt

stoichiometry N [1]: 2
Molecule: MBP-GafA-C^221–382 (domain or fragment)

stoichiometry N [2]: 2
Molecule: Maltose Binding Protein-GafA fusion protein (natural protein)

stoichiometry N [3]: 2
Molecule: MBP-GafA-Cx^87–382 (domain or fragment)

B1: pGTA4 (dsDNA)
DNA 1: TTCATTTCGCTCGTGCGGACAGGCATGAGAGGCGGGTCACGCAAGACATG
DNA 2: CATGTCTTGCGTGACCCGCCTCTCATGCCTGTCCGCACGAGCGAAATGAA
binding result (GafA-Nc1-86 [4]): binds

B2: pGafA2 (dsDNA)
DNA 1: TGCAGATGCCGTTTGCGCTATCTGACTGCCAGCCTGTCGATGGGAGACCGGAGATGAAGA
DNA 2: TCTTCATCTCCGGTCTCCCATCGACAGGCTGGCAGTCAGATAGCGCAAACGGCATCTGCA
binding result (GafA-Nc1-86 [5]): binds

B3: pGTA2 (dsDNA)
DNA 1: TTTGCGAACGCTTCAAGGTAGAGATAAGGCATGCTAGGAGAGGTGGGCAA
DNA 2: TTGCCCACCTCTCCTAGCATGCCTTATCTCTACCTTGAAGCGTTCGCAAA
binding result (MBP-GafA-C221-382): binds
binding result (GafA-Nc1-86 [4]): binds

B4: pGafA3 (dsDNA)
DNA 1: CGCTCAACCGAACGCTGCGTTTGGAAATCTTTAGAGTTTATAAAGAATTT
DNA 2: AAATTCTTTATAAACTCTAAAGATTTCCAAACGCAGCGTTCGGTTGAGCG
binding result (MBP-GafA-C221-382): binds

B5: pGTA1 (dsDNA)
DNA 1: TCCGGGGTTTTTTCTTTTCAGCGGGTGCAACCCTGAATATAGCACTTGAC
DNA 2: GTCAAGTGCTATATTCAGGGTTGCACCCGCTGAAAAGAAAAAACCCCGGA
binding result (GafA-Nc1-86 [6]): binds

B6: pGafA1 (dsDNA)
DNA 1: TCGAGATCGCCCCATTTCTTAACCAAGGGGTAACCAAAGCAACCCACGGT
DNA 2: ACCGTGGGTTGCTTTGGTTACCCCTTGGTTAAGAAATGGGGCGATCTCGA
binding result (GafA-Nc1-86 [5]): binds

B7: pGTA3 (dsDNA)
DNA 1: GCGCCGCGGGTGACCGTGTGCGCTTTTTTCATTTCGCTCGTGCGGACAGG
DNA 2: CCTGTCCGCACGAGCGAAATGAAAAAAGCGCACACGGTCACCCGCGGCGC
binding result (GafA-Nc1-86 [6]): binds
